According to patent publication US20250313625A1:
Where two headings read alike, the source gives them in different places.

How the values were obtained:
[1] = molecular target: mFc tagged human LAG3 ECD recombinant protein (human) (UniProt P18627); experiment: competitive FACS: mFc tagged human LAG3 ECD binding to MHC II on Raji cells
[2] = molecular target: mFc tagged human LAG3 ECD recombinant protein (human) (UniProt P18627); experiment: as above; remark: listed apart in the source
[3] = molecular target: mFc tagged human LAG3 ECD recombinant protein (human) (UniProt P18627); experiment: competitive ELISA: mFc tagged human LAG3 ECD binding to plate coated LSECtin ECD

mFc tagged human LAG3 ECD recombinant protein (human), sequence (P18627 23-450): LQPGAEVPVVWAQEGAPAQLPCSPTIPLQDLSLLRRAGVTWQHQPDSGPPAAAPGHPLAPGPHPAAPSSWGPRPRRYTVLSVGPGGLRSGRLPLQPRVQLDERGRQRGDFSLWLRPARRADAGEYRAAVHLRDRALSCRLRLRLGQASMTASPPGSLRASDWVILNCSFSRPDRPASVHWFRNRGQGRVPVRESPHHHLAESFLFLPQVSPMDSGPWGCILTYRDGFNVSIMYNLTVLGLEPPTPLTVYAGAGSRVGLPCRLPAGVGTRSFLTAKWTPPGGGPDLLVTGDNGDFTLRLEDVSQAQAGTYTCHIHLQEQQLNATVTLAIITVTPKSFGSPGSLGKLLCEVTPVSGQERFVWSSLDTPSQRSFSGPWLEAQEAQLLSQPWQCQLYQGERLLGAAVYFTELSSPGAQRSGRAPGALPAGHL

hIgG4 (antibody)
%Blocking at 2 nM [1]: 5.7% | %Blocking at 8 nM [1]: 3.4% | %Blocking at 8 nM [2]: 10.9% | %Blocking at 4 nM [3]: 1.3% | %Blocking at 20 nM [3]: 5.6% | %Blocking at 100 nM [3]: 7.4%
